Substitutions are numbered along the chain they refer to. Names and notes keep the numbering of the source.
T1: human IL-2Rβ (human, UniProt P14784 27-240, limits assumed)
T1 construct: also called hIL-2Rβ; IL-2 receptor beta
T1 sequence (looked up): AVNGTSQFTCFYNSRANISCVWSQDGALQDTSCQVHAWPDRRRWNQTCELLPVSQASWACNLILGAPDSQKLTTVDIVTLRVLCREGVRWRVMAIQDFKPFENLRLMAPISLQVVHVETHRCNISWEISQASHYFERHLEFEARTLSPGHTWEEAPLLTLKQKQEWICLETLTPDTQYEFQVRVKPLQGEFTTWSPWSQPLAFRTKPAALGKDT

B1: hIL-15 V49R/K11A (ligand)
chain: NWVNVISDLKAIEDLIQSMHIDATLYTESDVHPSCKVTAMKCFLLELQRISLESGDASIHDTVENLIILANNSLSSNGNVTESGCKECEELEEKNIKEFLQSFVHIVQMFINTGGGGSGHHHHHHHHGGGLNDIFEAQKIEWHE
B2: hIL-15 V49R/N1T (ligand)
chain: B1 chain with N1T, A11K
B3: hIL-15 V49R/L69V (ligand)
chain: B1 chain with A11K, L69V
B4: hIL-15 V49R/K11R (ligand)
chain: B1 chain with A11R
B5: hIL-15 V49R/L69I (ligand)
chain: B1 chain with A11K, L69I
B6: hIL-15 V49R/M109S (ligand)
chain: B1 chain with A11K, M109S
B7: hIL-15 V49R/M109A (ligand)
chain: B1 chain with A11K, M109A
B8: hIL-15 V49R/N1G (ligand)
chain: B1 chain with N1G, A11K
B9: hIL-15 V49R/K11V (ligand)
chain: B1 chain with A11V
B10: hIL-15 V49R/N1E (ligand)
chain: B1 chain with N1E, A11K
B11: hIL-15 V49R/K11Y (ligand)
chain: B1 chain with A11Y
B12: hIL-15 V49R/N4D (ligand)
chain: B1 chain with N4D, A11K
B13: hIL-15 V49R/M109D (ligand)
chain: B1 chain with A11K, M109D
B14: hIL-15 V49R/N1Q (ligand)
chain: B1 chain with N1Q, A11K
B15: hIL-15 V49R/K11S (ligand)
chain: B1 chain with A11S
B16: hIL-15 V49R/K11H (ligand)
chain: B1 chain with A11H
B17: hIL-15 V49R/N1D (ligand)
chain: B1 chain with N1D, A11K
B18: hIL-15 V49R/M109K (ligand)
chain: B1 chain with A11K, M109K
B19: hIL-15 V49R/K11Q (ligand)
chain: B1 chain with A11Q
B20: hIL-15 V49R/N4H (ligand)
chain: B1 chain with N4H, A11K
B21: hIL-15 V49R/N1S (ligand)
chain: B1 chain with N1S, A11K
B22: hIL-15 V49R/N1H (ligand)
chain: B1 chain with N1H, A11K
B23: hIL-15 V49R/K11D (ligand)
chain: B1 chain with A11D
B24: hIL-15 V49R/K11L (ligand)
chain: B1 chain with A11L
B25: hIL-15 V49R/L69M (ligand)
chain: B1 chain with A11K, L69M
B26: hIL-15 V49R/L69T (ligand)
chain: B1 chain with A11K, L69T
B27: hIL-15 V49R/N1K (ligand)
chain: B1 chain with N1K, A11K
B28: hIL-15 V49R/L69S (ligand)
chain: B1 chain with A11K, L69S
B29: hIL-15 V49R/K11E (ligand)
chain: B1 chain with A11E
B30: hIL-15 V49R/K11N (ligand)
chain: B1 chain with A11N
B31: hIL-15 V49R/N4A (ligand)
chain: B1 chain with N4A, A11K
B32: hIL-15 V49R/K11I (ligand)
chain: B1 chain with A11I
B33: hIL-15 V49R/N4G (ligand)
chain: B1 chain with N4G, A11K
B34: hIL-15 V49R/L69E (ligand)
chain: B1 chain with A11K, L69E
B35: hIL-15 V49R/N4E (ligand)
chain: B1 chain with N4E, A11K
B36: hIL-15 V49R/N1A (ligand)
chain: B1 chain with N1A, A11K
B37: hIL-15 V49R/L69A (ligand)
chain: B1 chain with A11K, L69A
B38: hIL-15 V49R/K11T (ligand)
chain: B1 chain with A11T
B39: hIL-15 V49R/L69D (ligand)
chain: B1 chain with A11K, L69D

Target: T2, human IL-15Rα (human, UniProt Q13261 31-205, limits assumed)
T2 construct: also called hIL-15Rα; IL-15 receptor alpha
Assay: SPR, steady state

T2 sequence (Q13261 31-205 limits assumed): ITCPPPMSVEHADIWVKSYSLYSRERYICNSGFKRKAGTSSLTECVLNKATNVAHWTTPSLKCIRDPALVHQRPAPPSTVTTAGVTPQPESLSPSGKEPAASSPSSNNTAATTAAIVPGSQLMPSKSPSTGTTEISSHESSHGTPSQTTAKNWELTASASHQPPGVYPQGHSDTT

Binder | Kd [nM]
B1 | 191
B2 | 104
B3 | 85.5
B4 | 140
B5 | 93.1
B6 | 190
B7 | 198
B8 | 160
B9 | 142
B10 | 171
B11 | 219
B12 | 103
B13 | 288
B14 | 115
B15 | 194
B16 | 147
B17 | 105
B18 | 215
B19 | 156
B20 | 81.5

Binder | Kd [nM]
B21 | 140
B22 | 151
B23 | 242
B24 | 142
B25 | 74.5
B26 | 63.6
B27 | 264
B28 | 78.2
B29 | 159
B30 | 217
B31 | 98
B32 | 95.8
B33 | 105
B34 | 47.8
B35 | 79.8
B36 | 175
B37 | 82.9
B38 | 169
B39 | 65.6

Target: T1, human IL-2Rβ
Assay: SPR, steady state

Binder | Kd [nM]
B1 | 206
B2 | 249
B3 | > 1000
B4 | 138
B5 | 306
B6 | 362
B7 | > 500
B8 | > 500
B9 | 110
B10 | 340
B11 | 143
B12 | 365
B13 | 339
B14 | > 500
B15 | 453
B16 | 104
B17 | 311
B18 | > 500
B19 | 107
B20 | 96.4

Binder | Kd [nM]
B21 | 194
B22 | 235
B23 | > 500
B24 | 92.2
B25 | > 1000
B26 | > 1000
B27 | > 500
B28 | > 500
B29 | 160
B30 | 291
B31 | > 500
B32 | 76
B33 | > 500
B34 | > 1000
B35 | 311
B36 | 398
B37 | > 500
B38 | 225
B39 | > 500
